Broadly, the Kd is the concentration at which binding is half-saturated.

This passage reports Kd results from article PMC3625992 (Structure (London, England : 1993), 2012).

For this experiment, the target named is T1, helicase and C-terminal regulatory domains of human RIG-I (helicase-CTD; residues 230–925) (human, UniProt O95786 230-925).
T1 sequence (looked up): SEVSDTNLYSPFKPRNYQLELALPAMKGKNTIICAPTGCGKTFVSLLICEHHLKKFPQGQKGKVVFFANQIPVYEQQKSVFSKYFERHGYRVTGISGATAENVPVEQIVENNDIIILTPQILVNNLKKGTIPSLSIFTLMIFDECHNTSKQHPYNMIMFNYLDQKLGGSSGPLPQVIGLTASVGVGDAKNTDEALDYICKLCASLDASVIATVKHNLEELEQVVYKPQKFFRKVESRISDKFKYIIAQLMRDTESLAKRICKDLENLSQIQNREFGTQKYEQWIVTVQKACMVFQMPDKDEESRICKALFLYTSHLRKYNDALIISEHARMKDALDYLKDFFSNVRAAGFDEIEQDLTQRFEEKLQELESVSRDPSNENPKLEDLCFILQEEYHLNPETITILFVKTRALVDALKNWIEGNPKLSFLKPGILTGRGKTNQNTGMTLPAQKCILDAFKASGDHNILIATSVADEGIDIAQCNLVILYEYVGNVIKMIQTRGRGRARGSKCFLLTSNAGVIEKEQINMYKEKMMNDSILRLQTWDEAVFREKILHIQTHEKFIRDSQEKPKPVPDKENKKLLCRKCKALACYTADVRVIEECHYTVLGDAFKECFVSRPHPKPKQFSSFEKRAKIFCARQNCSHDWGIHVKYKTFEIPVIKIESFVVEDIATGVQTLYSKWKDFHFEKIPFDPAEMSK
The experiment is described as follows: NMR titration.

B1: second CARD of human RIG-I (CARD2; residues 95–190) (domain or fragment, UniProt O95786 95-190, looked up)
chain: KKIEKLEEYRLLLKRLQPEFKTRIIPTDIISDLSECLINQECEEILQICSTKGMMAGAEKLVECLLRSDKENWPKTLKLALEKERNKFSELWIVEK
Regarding B1, the Kd was 1.66 ± 1.3 µM.
